Columns and labels:
HOXB3 + PBX1 = HOXB3 + PBX1 (UniProt P14651;P40424 P14651:1-431,P40424:1-430); assay: EMSA; cooperative complex; 20 mM Hepes pH 7.6, 30 mM KCl, poly(dI-dC), RT; conditions: tags: pSG5-derived vectors, reticulocyte lysate; label: DIG
Procedure: (§1) PBX1 and HOX proteins used in this study were produced in vitro from the corresponding pSG5-derived expression vectors using a T7 polymerase-based coupled transcription-translation reticulocyte lysate system (Promega, Madison, Wis.). EMSA were performed according to the instruction of DIG gel shift kit (Roche). Briefly, 2 μl of double-stranded DIG-labeled oligonucleotides were incubated with 2 μl of in vitro-translated proteins in 20 μl of binding buffer (20 mM Hepes pH 7.6, 1 mM EDTA, 10 mM (NH₄)₂SO_{4, 1} mM DTT, 0.2%(w/v) Tween 20, 30 mM KCl in the presence of 1 μg of poly (dI-dC) and 0.1 μg of poly L-lysine) for 30 min at room temperature. Pre-binding reactions of unlabeled competitor oligonucleotides at ˜100-fold molar excess occurred for 15 minutes at room temperature. The incubation mixture was resolved by electrophoresis and served for chemiluminescent detection according to recommended conditions of DIG gel shift kit (Roche). DIG-labeled DNA probes used were generated by annealing complementary oligonucleotides:
(§2) Next, a representative subset of HOX proteins was tested for cooperative DNA binding with Pbx 1, to both the wild-type and a mutated 40 bp sequence derived from the 125 bp Hb9 enhancer (FIG. 6D). […] No binding was detected with PBX1 alone (lane 1), or with either of the HOX proteins alone. […]

PBX1 = biological target: T1, PBX1 (UniProt P40424 P40424:1-430); assay: EMSA; PBX1 alone; conditions: tags: pSG5-derived vector, reticulocyte lysate; label: DIG
T1 sequence: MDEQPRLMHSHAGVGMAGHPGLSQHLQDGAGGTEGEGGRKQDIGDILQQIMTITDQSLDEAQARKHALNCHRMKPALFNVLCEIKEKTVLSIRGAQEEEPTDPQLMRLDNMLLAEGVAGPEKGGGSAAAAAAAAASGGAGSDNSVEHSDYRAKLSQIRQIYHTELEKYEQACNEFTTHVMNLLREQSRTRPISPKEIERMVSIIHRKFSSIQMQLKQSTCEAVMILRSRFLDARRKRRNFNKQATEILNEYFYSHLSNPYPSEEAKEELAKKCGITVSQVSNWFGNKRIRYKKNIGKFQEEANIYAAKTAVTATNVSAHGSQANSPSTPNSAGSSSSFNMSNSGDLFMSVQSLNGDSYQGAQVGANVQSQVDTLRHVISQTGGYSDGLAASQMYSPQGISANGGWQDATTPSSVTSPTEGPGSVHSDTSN
Procedure: as §1, §2

HOXB1 + PBX1 = HOXB1 + PBX1 (UniProt P14653;P40424 P14653:1-301,P40424:1-430); assay: EMSA; cooperative complex; abolished by anti-PBX1 antibody; 20 mM Hepes pH 7.6, 30 mM KCl, poly(dI-dC), RT; conditions: tags: pSG5-derived vectors, reticulocyte lysate; label: DIG
HOXB1 + PBX1, sequence (P14653 whole entry, one chain of several): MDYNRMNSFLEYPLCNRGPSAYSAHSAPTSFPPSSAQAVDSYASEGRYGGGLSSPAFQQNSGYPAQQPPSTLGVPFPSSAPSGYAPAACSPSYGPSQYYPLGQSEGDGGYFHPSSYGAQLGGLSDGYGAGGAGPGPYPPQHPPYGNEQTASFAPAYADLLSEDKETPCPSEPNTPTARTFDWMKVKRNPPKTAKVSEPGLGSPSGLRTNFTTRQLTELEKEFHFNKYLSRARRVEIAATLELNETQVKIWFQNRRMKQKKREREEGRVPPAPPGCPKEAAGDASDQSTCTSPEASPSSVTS
Procedure: as §1, §2

HOXB3 = HOXB3 (UniProt P14651 P14651:1-431); assay: EMSA; HOX alone; conditions: tags: pSG5-derived vector, reticulocyte lysate; label: DIG
HOXB3, sequence (P14651 whole entry, one chain of several): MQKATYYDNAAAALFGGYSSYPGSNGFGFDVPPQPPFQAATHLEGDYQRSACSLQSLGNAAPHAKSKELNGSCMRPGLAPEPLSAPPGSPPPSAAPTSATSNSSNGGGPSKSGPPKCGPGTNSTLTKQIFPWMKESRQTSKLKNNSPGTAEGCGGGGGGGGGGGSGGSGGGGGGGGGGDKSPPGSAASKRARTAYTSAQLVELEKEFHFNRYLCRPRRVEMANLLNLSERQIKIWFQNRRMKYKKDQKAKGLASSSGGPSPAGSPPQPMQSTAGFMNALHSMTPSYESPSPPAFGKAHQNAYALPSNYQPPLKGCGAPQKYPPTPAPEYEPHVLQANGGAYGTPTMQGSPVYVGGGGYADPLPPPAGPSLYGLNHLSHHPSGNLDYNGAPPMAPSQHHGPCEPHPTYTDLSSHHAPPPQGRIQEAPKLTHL
Procedure: as §1, §2

HOXB1 = HOXB1 (UniProt P14653 P14653:1-301); assay: EMSA; HOX alone; conditions: tags: pSG5-derived vector, reticulocyte lysate; label: DIG
HOXB1, sequence (P14653 whole entry, one chain of several): as the sequence (P14653 whole entry, one chain of several) above
Procedure: as §1, §2

HOXC8 + PBX1 = HOXC8 + PBX1 (UniProt P31273;P40424 P31273:1-242,P40424:1-430); assay: EMSA; no retarded complex with PBX1; conditions: tags: pSG5-derived vectors, reticulocyte lysate; label: DIG
HOXC8 + PBX1, sequence (P31273 whole entry, one chain of several): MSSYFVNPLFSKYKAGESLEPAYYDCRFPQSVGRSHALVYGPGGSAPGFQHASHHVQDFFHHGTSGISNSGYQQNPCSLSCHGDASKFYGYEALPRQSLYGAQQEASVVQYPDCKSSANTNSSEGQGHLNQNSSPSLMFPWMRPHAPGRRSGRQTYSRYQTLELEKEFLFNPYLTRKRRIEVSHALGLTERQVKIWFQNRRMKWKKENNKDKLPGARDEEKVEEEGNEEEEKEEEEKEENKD
Procedure: as §1, §2

HOXD9 + PBX1 = HOXD9 + PBX1 (UniProt P28356;P40424 P28356:1-352,P40424:1-430); assay: EMSA; no retarded complex with PBX1; conditions: tags: pSG5-derived vectors, reticulocyte lysate; label: DIG
HOXD9 + PBX1, sequence (P28356 whole entry, one chain of several): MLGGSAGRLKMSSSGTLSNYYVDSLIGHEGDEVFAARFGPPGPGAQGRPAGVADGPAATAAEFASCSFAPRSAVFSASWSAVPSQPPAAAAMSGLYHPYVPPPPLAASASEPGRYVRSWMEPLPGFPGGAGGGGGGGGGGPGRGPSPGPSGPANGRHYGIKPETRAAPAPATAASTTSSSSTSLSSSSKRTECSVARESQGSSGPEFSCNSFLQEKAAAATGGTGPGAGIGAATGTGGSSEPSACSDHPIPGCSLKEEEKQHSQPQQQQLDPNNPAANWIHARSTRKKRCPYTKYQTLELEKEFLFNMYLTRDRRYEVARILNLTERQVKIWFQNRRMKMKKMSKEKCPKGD
Procedure: as §1, §2

HOXB3 + PBX1, sequence (P14651 whole entry, one chain of several): as the sequence (P14651 whole entry, one chain of several) above

B1: Hb9 125 bp enhancer wild-type 40 bp probe (dsDNA)
DNA 1: GTACGTTAGCTGATGAATTGACAAAAACTAATCAGCTTTA
DNA 2: TAAAGCTGATTAGTTTTTGTCAATTCATCAGCTAACGTAC
B1: binds (HOXB3 + PBX1); no binding (PBX1); binds (HOXB1 + PBX1). B1: no binding (HOXB3); no binding (HOXB1); no binding (HOXC8 + PBX1). B1: no binding (HOXD9 + PBX1).

Reference: patent US20050129672, “Regulatory sequences that direct gene expression to spinal motor neurons and uses thereof” (published 2005)
